Results as given in the supplement of paper PMC10567573.

B1: PTPRD (parent)
chain: FICQATGDPRPKIVWNKKGKKVSN

Variants of: B1
Test: protein stability index of a GFP-peptide fusion (GPS, HEK-293T) (PSI 1-6); higher = more stable
Conditions: c terminus: a fixed tail appended
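Further: lentivirally expressed fusions sorted by FACS into six bins by GFP to DsRed ratio, PSI derived from sequencing read proportions per bin multiplied by bin number.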

Protein stability index: each site, then its substitutions
N16: F 2.04; Q 2.56; G 1.05; P 1.75; A 1.72; H 1.74; E 2.75; K 2.25; S 2.24; V 1.37; C 1.73; W 1.48; D 2.45; M 1.74; R 1.96; L 1.91; T 1.91; Y 1.89; I 1.99
G7: A 2.15; N 1.97; V 1.81; E 2.81; D 1.93; Y 1.7; R 1.92; H 2.16; S 2.02; T 2.01; P 2.32; L 2.19; Q 2.22; I 2.01; C 1.87; F 2.69; K 2.39; W 3.96; M 1.9
P9: C 1.49; A 1.84; W 1.53; L 2.49; F 1.99; I 2.21; H 2.29; Y 1.53; D 2.14; G 1.4; V 2.27; N 2.31; Q 1.83; K 1.54; E 1.99; S 2; M 2.36; T 1.88
K18: P 1.97; V 1.45; H 2.35; Y 1.94; R 2.2; M 1.46; F 1.38; N 1.98; T 1.51; W 2.01; G 2.04; C 1.72; D 1.95; A 1.93; I 1.24; S 1.61; Q 1.74; E 2.41; L 1.67
N24: V 2.33; R 3.04; H 2.17; W 1.92; I 2.73; P 2.31; E 2.37; A 1.97; D 2.05; M 1.4; C 2.23; G 2.22; K 1.85; T 1.65; F 1.89; L 1.44; S 2.03; Q 2.02
G19: P 1.74; M 2.22; R 2.05; F 2.51; D 1.71; C 1.26; N 1.56; H 1.9; K 1.87; T 2.14; E 1.8; Y 1.27; V 1.71; S 1.7; A 2.23; W 1.84; I 1.53; Q 2.4
P11: A 2.34; I 2.31; R 2.5; L 3.08; K 1.45; F 1.52; S 2.18; W 1.87; M 1.03; E 2.88; G 2.04; Q 2.19; Y 2.31; V 1.18; H 2.4; N 1.87; T 2.07; C 1.32; D 2.11
I13: V 2.97; E 2.1; N 1.88; M 1.51; A 1.83; S 1.52; G 2.6; L 1.45; C 1.99; K 1.74; W 1.87; H 1.74; Q 2.02; Y 1.86; P 1.75; T 1.73; R 2.46; F 1.62
T6: V 1.91; R 2; Q 2.17; Y 2.24; S 2.94
S23: M 2.29; L 2.14; E 2.72; H 2.37; C 2.69; Q 2.07; G 2.28; N 2.12; Y 2; P 2.15; T 2.59; K 2.52; I 1.84; V 2.4; D 2.52; R 2.08; A 2.49; W 2.28; F 2.31
K20: Y 1.48; Q 2.56; T 1.69; R 2.39; M 1.8; L 1.96; C 1.17; A 1.82; S 1.94; W 1.76; H 2.71; V 1.44; P 2; N 1.77; E 1.78; D 1.64; G 1.79; I 1.88
D8: G 1.98; S 1.92; A 2.04; F 1.85; Q 1.77; Y 1.45; M 1.8; C 1.94; T 2.11; L 1.5; H 1.6; R 2.24; K 2.5; E 1.91; N 2.16; P 1.8; I 2.33
W15: T 2.85; E 2.67; Q 2.73; A 2.48; M 2.9; L 2.16; Y 2.25; I 2.26; G 2.26; R 2.6; C 2.57; K 2.12; S 2.7; H 2.15; D 2.73; N 2.53; V 2.76; P 2.56; F 2.5
V22: I 2.17; S 2.41; L 2.36; Y 2.47; C 2.13; P 2.62; F 2.4; H 2.46; R 2.04; D 2.86; A 2; T 2.29; E 2.34; Q 2.47; M 2.35; W 2.35; G 2.58; N 2.16; K 2.66
V14: T 2.5; E 2.7; I 2.23; D 2.35; F 3.73; Y 1.59; N 1.73; M 1.67; A 2.23; R 1.78; S 2.27; W 2.18; G 2; H 2.27; P 2.21; Q 2.01; K 2.4
K21: F 1.61; W 1.72; I 2.2; E 2.25; T 2.45; A 2.52; L 2.9; Q 1.77; P 2.18; Y 1.49; R 2.49; D 1.99; V 1.9; S 2.28; G 1.9; M 2.03; H 1.95; C 2.26; N 2.17
K17: P 2.81; C 1.92; S 1.79; T 1.55; M 1.78; W 2.78; E 1.34; Q 1.84; N 2.31; G 1.77; F 1.56; D 1.74; A 1.37; V 1.9; Y 1.68; I 1.31; L 1.78; R 2.21; H 1.96
R10: Q 2.06; N 1.83; L 1.83; V 1.88; T 2; M 2.58; F 1.89; C 1.84; I 2.08; S 1.81; K 2.95; P 2.41; H 1.79; A 1.98; D 1.82; E 1.61
K12: S 2.17; T 2.26; D 1.18; G 2.28; W 1.6; A 1.87; Q 1.94; V 1.61; I 1.89; H 1.86; M 1.58; P 1.96; E 1.52; L 3.35; N 1.95; C 1.9; R 1.44; Y 1.41
